Data on four sequences can be found in the supplement of paper PMC10567573.

± gives the standard deviation.

The nature of the data set: protein stability index of a GFP-peptide fusion (GPS, HEK-293T) (PSI 1-6); higher = more stable. The following applies: c terminus: a fixed tail appended.
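Further: 24-mer peptide tiles fused after GFP, lentivirally expressed, FACS-sorted into six equal bins by GFP/DsRed ratio, decoded by Illumina sequencing, PSI is the read-weighted mean bin number.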

Take YSDNPCSCSQSHCCSRYLCMGAMS [SPRY1]: the protein stability index is, setting by setting: (treatment: DMSO) 2.62 ± 0.22; (treatment: MLN4924 1 uM, 8 h) 2.71 ± 0.35.

On to YVALQTKGALQKKPLYVAFSFMYI [KCNK9], for which the protein stability index by setting is: (treatment: DMSO) 3.44 ± 0.89; (treatment: MLN4924 1 uM, 8 h) 2.85 ± 0.8.

Consider YVHWPYCEKRCSYCNFNKYIPRRL [RSAD1], for which the protein stability index (treatment: DMSO) was found to be 2.62 ± 0.51 and the protein stability index (treatment: MLN4924 1 uM, 8 h) was 2.45 ± 0.34.

For YYYMGFYIHSCPKMKYKGQYRPSD [ATE1], the protein stability index by setting is: (treatment: DMSO) 2.25 ± 0.82; (treatment: MLN4924 1 uM, 8 h) 2.45 ± 0.2.
